In US6995244 (OHIO STATE UNIVERSITY, dated 2006):
Where a chain is given by its changes, count along the chain named. In names and notes the source's numbering stands. Values belong to the molecule of their own block, whether it stands above or below them.

Key:
[1] = target: growth hormone receptor (FDC-P1 somatotrophic assay); assay: cell-based or functional assay
[2] = target: human prolactin receptor on transfected FDC-P1 cells (human) (UniProt P16471); assay: cell-based or functional assay
[3] = target: T1, human prolactin receptor on transfected FDC-P1 cells (human, UniProt P16471 25-622); assay: cell-based or functional assay
T1 sequence (looked up): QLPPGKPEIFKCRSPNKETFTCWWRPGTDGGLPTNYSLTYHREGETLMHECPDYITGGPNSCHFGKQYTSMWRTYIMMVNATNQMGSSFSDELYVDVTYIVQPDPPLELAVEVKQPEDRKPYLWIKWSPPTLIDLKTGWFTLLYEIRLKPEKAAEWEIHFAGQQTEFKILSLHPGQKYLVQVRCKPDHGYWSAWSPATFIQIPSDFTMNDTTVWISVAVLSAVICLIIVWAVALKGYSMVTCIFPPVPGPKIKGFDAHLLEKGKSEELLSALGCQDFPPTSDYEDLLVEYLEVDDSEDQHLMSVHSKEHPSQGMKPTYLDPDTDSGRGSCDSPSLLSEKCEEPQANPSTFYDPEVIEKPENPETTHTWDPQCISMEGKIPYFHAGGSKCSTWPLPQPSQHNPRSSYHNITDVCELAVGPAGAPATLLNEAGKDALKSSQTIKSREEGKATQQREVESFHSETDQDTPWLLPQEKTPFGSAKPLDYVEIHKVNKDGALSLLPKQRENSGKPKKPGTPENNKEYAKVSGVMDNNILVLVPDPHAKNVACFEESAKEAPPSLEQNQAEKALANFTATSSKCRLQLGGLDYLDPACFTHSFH

[4] = target: T2, extracellular domain of the human prolactin receptor (human, UniProt P16471 25-234); assay: SPR (BIACORE 3000), prolactin coupled to the chip through Cys 158, receptor ECD 50-800 nM, induced-fit model, site 2 (kd2)
T2 construct: extracellular domain; also called extracellular domain of the human lactogenic receptor; lactogenic receptor
T2 sequence (looked up): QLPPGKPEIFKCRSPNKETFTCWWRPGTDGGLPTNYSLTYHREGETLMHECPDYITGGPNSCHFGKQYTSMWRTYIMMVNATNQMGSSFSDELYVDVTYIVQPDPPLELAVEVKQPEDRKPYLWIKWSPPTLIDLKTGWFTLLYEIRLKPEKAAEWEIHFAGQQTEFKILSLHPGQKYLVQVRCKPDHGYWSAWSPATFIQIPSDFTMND
Protocol: (§1) The extracellular domain of the human lactogenic receptor was flowed across the prolactin-linked chip surface at various concentrations and the binding kinetics followed by the optical bench. Human lactogenic receptor (extracellular domain) concentrations varied between 50 nM and 800 nM. […] A single receptor model was used for G129C human prolactin, where site 2 was blocked by the chemistry employed to couple the protein to the chip surface.
(§2) Rate constants were calculated from the association and dissociation curves, respectively, with concentrations of the extracellular domain of the human lactogenic receptor (50, 80, 100, 200, 500 and 800 nM).

[5] = target: T2, extracellular domain of the human …; assay: SPR (BIACORE 3000), prolactin coupled to the chip through Cys 158, receptor ECD 50-800 nM, induced-fit model, site 2 (ka2)
Protocol: as §1, §2

[6] = target: T2, extracellular domain of the human …; assay: SPR, saturating equilibrium at 100 µM receptor ECD (FIG. 10, lower panel)
Protocol: Experiments were then performed in studies that measured the maximal binding of lactogenic receptor (the extracellular domain of the prolactin receptor prepared by recombinant DNA technology). The various prolactins were bound with high concentrations (100 μM) of extracellular domain of the human prolactin receptor.

[7] = target: T2, extracellular domain of the human …; assay: SPR (BIACORE 3000), prolactin coupled to the chip through Cys 158, receptor ECD 50-800 nM, induced-fit model, site 1 (ka1)
Protocol: as §1, §2

[8] = target: T2, extracellular domain of the human …; assay: SPR (BIACORE 3000), prolactin coupled to the chip through Cys 158, receptor ECD 50-800 nM, induced-fit model, site 1 (KD1)
Protocol: as §1, §2

[9] = target: T2, extracellular domain of the human …; assay: SPR (BIACORE 3000), prolactin coupled to the chip through Cys 158, receptor ECD 50-800 nM, induced-fit model, site 1 (kd1); site 1 (kd1), prolactin coupled through Cys 158
Protocol: as §1, §2

[10] = target: T2, extracellular domain of the human …; assay: SPR (BIACORE 3000), prolactin coupled to the chip through Cys 158, receptor ECD 50-800 nM, induced-fit model, site 2 (KD2)
Protocol: as §1, §2

[11] = target: T2, extracellular domain of the human …; assay: SPR (BIACORE 3000), prolactin coupled to the chip through residue 129 (site 2 blocked), receptor ECD 50-800 nM, single-site model, site 1 (kd1)
Protocol: as §1, §2

[12] = target: T2, extracellular domain of the human …; assay: SPR (BIACORE 3000), prolactin coupled to the chip through residue 129 (site 2 blocked), receptor ECD 50-800 nM, single-site model, site 1 (KD1)
Protocol: as §1, §2

[13] = target: T2, extracellular domain of the human …; assay: SPR (BIACORE 3000), prolactin coupled to the chip through residue 129 (site 2 blocked), receptor ECD 50-800 nM, single-site model, site 1 (ka1)
Protocol: as §1, §2

ED50 (nM), FDC-P1 somatotrophic assay [1]: 0.0712 nM
ED50 (nM), FDC-P1 lactogenic assay [2]: 1.76 nM
Molecule: wild-type recombinant human growth hormone (from UniProt P01241 27-217) (ligand)

ED50 (nM), FDC-P1 somatotrophic assay [1]: 0.576 nM
Molecule: F44E human growth hormone (from UniProt P01241 27-217) (ligand)

ED50 (nM), FDC-P1 somatotrophic assay [1]: 0.235 nM
Molecule: L163F human growth hormone (from UniProt P01241 27-217) (ligand)

ED50 (nM), FDC-P1 somatotrophic assay [1]: 0.13 nM
Molecule: L163A human growth hormone (from UniProt P01241 27-217) (ligand)

ED50 (nM), FDC-P1 somatotrophic assay [1]: 0.151 nM
Molecule: Y164E human growth hormone (from UniProt P01241 27-217) (ligand)

ED50 (nM), FDC-P1 somatotrophic assay [1]: 0.186 nM
Molecule: Y160E human growth hormone (from UniProt P01241 27-217) (ligand)

ED50 (nM), FDC-P1 somatotrophic assay [1]: 0.234 nM
Molecule: L93E human growth hormone (from UniProt P01241 27-217) (ligand)

ED50 (nM), FDC-P1 lactogenic assay (cell proliferation, Alamar blue) [3]: 0.03 nM
Relative fold loss of activity, FDC-P1 lactogenic assay [3]: 2.7 fold
B1: ΔF50 human prolactin (ligand)
chain: MLPICPGGAARCQVTLRDLFDRAVVLSHYIHNLSSEMFSEFDKRYTHGRGITKAINSCHTSSLATPEDKEQAQQMNQKDFLSLIVSILRSWNEPLYHLVTEVRGMQEAPEAILSKAVEIEEQTKRLLEGMELIVSQVHPETKENEIYPVWSGLPSLQMADEESRLSAYYNLLHCLRRDSHKIDNYLKLLKCRIIHNNNC

ED50 (nM), FDC-P1 lactogenic assay (cell proliferation, Alamar blue) [3]: 63.1 nM
Relative fold loss of activity, FDC-P1 lactogenic assay [3]: 87.7 fold
B2: L98E human prolactin (ligand)
chain: MLPICPGGAARCQVTLRDLFDRAVVLSHYIHNLSSEMFSEFDKRYTHGRGFITKAINSCHTSSLATPEDKEQAQQMNQKDFLSLIVSILRSWNEPLYHEVTEVRGMQEAPEAILSKAVEIEEQTKRLLEGMELIVSQVHPETKENEIYPVWSGLPSLQMADEESRLSAYYNLLHCLRRDSHKIDNYLKLLKCRIIHNNNC

ED50 (nM), FDC-P1 lactogenic assay (cell proliferation, Alamar blue) [3]: 1130 nM
Relative fold loss of activity, FDC-P1 lactogenic assay [3]: 1570 fold
B3: H173E human prolactin (ligand)
chain: B2 chain with E99L, H174E

ED50 (nM), FDC-P1 lactogenic assay (cell proliferation, Alamar blue) [3]: 5.6 nM
Relative fold loss of activity, FDC-P1 lactogenic assay [3]: 7.8 fold
B4: L95E human prolactin (ligand)
chain: B2 chain with L96E, E99L

ED50 (nM), FDC-P1 lactogenic assay (cell proliferation, Alamar blue) [3]: 5.7 nM
Relative fold loss of activity, FDC-P1 lactogenic assay [3]: 8 fold
B5: L171E human prolactin (ligand)
chain: B2 chain with E99L, L172E

ED50 (nM), FDC-P1 lactogenic assay (cell proliferation, Alamar blue) [3]: 1 nM
Relative fold loss of activity, FDC-P1 lactogenic assay [3]: 5 fold
B6: F50E human prolactin (ligand)
chain: B2 chain with F51E, E99L

ED50 (nM), FDC-P1 lactogenic assay (cell proliferation, Alamar blue) [3]: 64.8 nM
Relative fold loss of activity, FDC-P1 lactogenic assay [3]: 90 fold
B7: Y169E human prolactin (ligand)
chain: B2 chain with E99L, Y170E

ED50 (nM), FDC-P1 lactogenic assay (cell proliferation, Alamar blue) [3]: 29.5 nM
Relative fold loss of activity, FDC-P1 lactogenic assay [3]: 41 fold
B8: L165E human prolactin (ligand)
chain: B2 chain with E99L, L166E

koff [4]: 0.00039 s⁻¹
kon [5]: 2560 M⁻¹ s⁻¹
stoichiometry (receptors bound to each prolactin) [6]: 2 receptors per prolactin
kon [7]: 14300 M⁻¹ s⁻¹
Kd [8]: 109 nM
koff [9]: 0.00157 s⁻¹
Kd [10]: 153 nM
B9: M158C human prolactin (ligand)
chain: B2 chain with E99L, M159C
modifications: Cys 158 disulfide-coupled through a thiol to the dextran polymer of the SPR chip surface
notes: Recombinant, expressed in E. coli

koff [11]: 0.00119 s⁻¹
stoichiometry (receptors bound to each prolactin) [6]: ~1 receptors per prolactin
Kd [12]: 60.5 nM
kon [13]: 19600 M⁻¹ s⁻¹
B10: G129C human prolactin (ligand)
chain: B2 chain with E99L, G130C
modifications: Cys 129 disulfide-coupled through a thiol to the dextran polymer of the SPR chip surface
notes: Recombinant, E. coli
